Experimental data: paper PMC9604513, “De novo selected hACE2 mimics that integrate hotspot peptides with aptameric scaffolds for binding tolerance of SARS-CoV-2 variants” (Science Advances, 2022)

Columns and labels:
[1] = target: SARS-CoV-2 RBD wild type (SARS-CoV-2 (wild type)) (UniProt P0DTC2); test: flow cytometry bead binding; conditions: 5'-hexynyl clicked to C-terminal azide of peptide LGKGDFR
pseudotyped SARS-CoV-2 = type: cell-based, SARS-CoV-2 (human hACE2-293T cells)
RBD-hACE2 binding = RBD-hACE2 binding (Severe acute respiratory syndrome coronavirus 2, UniProt P0DTC2); conditions: ELISA, 3 μM, n = 3 independent replicates

Substance | binding signal (RBD-binding fraction relative to R7-02) [1] | percentage of GFP-expressing infected cells over the total hACE2-293T cells (pseudotyped SARS-CoV-2) [%] | inhibition of RBD-hACE2 interaction (RBD-hACE2 binding) [%]
GGAAGAGATGGCGACCACACCAAATCTGAGTCTACCCCATGAAGGAGCTGATCCTGATGG [R7-03 hybrid ligand (LGKGDFR-DNA)] | 0.125 |  | 
GGAAGAGATGGCGACCTCCACAACCGCTGATCGACGCAGATCTTGTGGGTAGCTGATCCTGATGG [R7-01 hybrid ligand (LGKGDFR-DNA)] | 0.2 |  | 
LGKGDFR [LGKGDFR peptide] |  | 22.0 | 11.69
